Results as given in patent publication US20240400693A1 (Chugai, published 2024).
Changes are numbered by the printed parent chain. Read-outs that look alike come from different tables or passages of the source.

B1: DQN0344H1013/L0620//DQN0385H1352/L0681-F6 (bispecific antibody)
heavy 1: QVQLVESGGGVVQPGRSLRLSCAASGFTFSSAYWMVWVRQAPGQGLEWMGAVYGGSDTTYYAKWTEGRFTISRDTSKNTLYLQMNSLRAEDTAVYYCAREPLNYYYYGELNVWGQGTLVTVSSASTKGPSVFPLAPSSKSTSGGTAALGCLVKDYFPEPVTVSWNSGALTSGVHTFPAVLKSSGLYSLSSVVTVPSSSLGTQTYICNVNHKPSNTKVDKRVEPKSCDKTHTCPPCPAPELRRGPSVFLFPPKPKDTLMISRTPEVTCVVVDVSHEDPEVKFNWYVDGVEVHNAKTKPREEQYNSTYRVVSVLTVLHQDWLNGKEYKCKVSNKALPAPIEKTISKAKGQPREPQVYTLPPSREEMTKNQVSLTCLVKGFYPSDIAVEWESNGQPENNYKTTPPYLDSDGSFFLYSKLTVDKSRWQEGNVFSCSVLHEALHAHYTREELSLSP
light 1: DIQMTQSPSSLSASVGDRVTITCQATENIYSGLAWYQQKPGKAPKLLIYYVSTLAYGIPARFSGSGSGTDFTLTISSLEPEDFAVYYCQTYEDVSAVTFGQGTKVEIKRTVAAPSVFIFPPSDEQLKSGTAEVVCLLNNFYPREAKVQWKVDNALQSGNSEESVTEQDSKDSTYSLSSTLTLSKADYEKHKVYACEVTHQGLSSPVTKSFNRGEC
heavy 2: QVQLVESGGGVVQPGRSLRLSCAASGFEFSEWYFMSWVRQAPGKGLEWVASIDTGSGSIDYAEWVEGRFTISRDNSKNTLYLQMNSLRAEDTAVYYCARDIGIDYNFWGPGTLVTVSSASTKGPSVFPLAPSSKSTSGGTAALGCLVEDYFPEPVTVSWNSGALTSGVHTFPAVLESSGLYSLSSVVTVPSSSLGTKTYICNVNHKPSNTKVDKRVEPKSCDKTHTCPPCPAPELRRGPSVFLFPPKPKDTLMISRTPEVTCVVVDVSHEDPEVKFNWYVDGVEVHNAKTKPREEQYNSTYRVVSVLTVLHQDWLNGKEYKCKVSNKALPAPIEKTISKAKGQPREPQVYTLPPSRKEMTKNQVSLTCLVKGFYPSDIAVEWESNGQPENNYKTTPPYLDSDGSFFLYSKLTVDKSRWQQGNVFSCSVLHEALHAHYTRKELSLSP
light 2: DIQMTQSPSSLSASVGDRVTITCQTTQSISSYLNWYQQKPGQPPKLLIYYASTKAEGIPARFSGSGLGTDFTLTISSLEPEDFAVYYCHYGISKVSFGQGTKVEIKRTVAAPSVFIFPPSDEQLKSGTAKVVCLLNNFYPREAKVQWKVDNALQSGNSKESVTEQDSKDSTYSLSSTLTLSKADYEKHKVYACEVTHQGLSSPVTKSFNRGEC
B2: DQN0344H1013/L0620//DQN0385H1521/L0605-F6 (bispecific antibody)
heavy 1: B1 heavy 1
light 1: B1 light 1
heavy 2: B1 heavy 2 with E28T, S30E, E31S
light 2: B1 light 2 with L67S

Columns and labels:
HLA-DQ6.3 on Ba/F3 cells = target: T1, HLA-DQ6.3 on Ba/F3 cells (human, UniProt P01920 33-230, limits assumed); experiment: FACS, Ba/F3 cells; raw MFI
T1 construct: whole, on cells; also called Ba/F3-HLA-DQ6.3
T1 MHC II alpha: not shown
T1 MHC II beta: not shown

HLA-DQ5.1 on Ba/F3 cells = target: T2, HLA-DQ5.1 on Ba/F3 cells (human, limits assumed); experiment: FACS, Ba/F3 cells; raw MFI
T2 construct: whole, on cells; also called Ba/F3-HLA-DQ5.1
T2 MHC II alpha: not shown
T2 MHC II beta: not shown

HLA-DR on Ba/F3 cells = target: T3, HLA-DR on Ba/F3 cells (human, UniProt P01903 26-216; P79483 30-227, limits assumed); experiment: FACS, Ba/F3 cells; raw MFI
T3 construct: whole, on cells; also called Ba/F3-HLA-DR
T3 MHC II alpha: not shown
T3 MHC II beta: not shown

HLA-DP on Ba/F3 cells = target: T4, HLA-DP on Ba/F3 cells (human, UniProt P20036 29-222; P04440 30-225, limits assumed); experiment: FACS, Ba/F3 cells; raw MFI
T4 construct: whole, on cells; also called Ba/F3-HLA-DP

HLA-DQ8 on Ba/F3 cells [1] = target: T5, HLA-DQ8 on Ba/F3 cells (human, UniProt P01909 24-216; P01920 33-230, limits assumed); experiment: FACS, Ba/F3 cells; %MFI: IC17dK 0, DQN0139bb 100
T5 construct: whole, on cells; also called Ba/F3-HLA-DQ8
T5 MHC II alpha: not shown
T5 MHC II beta: not shown

HLA-DQ7.5 on Ba/F3 cells [2] = target: T6, HLA-DQ7.5 on Ba/F3 cells (human, UniProt P01909 24-216; P01920 33-230, limits assumed); experiment: FACS, Ba/F3 cells; %MFI: IC17dK 0, DQN0139bb 100
T6 construct: whole, on cells; also called Ba/F3-HLA-DQ7.5

HLA-DQ7.3 on Ba/F3 cells [3] = target: T7, HLA-DQ7.3 on Ba/F3 cells (human, UniProt P01909 24-216; P01920 33-230, limits assumed); experiment: FACS, Ba/F3 cells; %MFI: IC17dK 0, DQN0139bb 100
T7 construct: whole, on cells; also called Ba/F3-HLA-DQ7.3
T7 MHC II alpha: not shown
T7 MHC II beta: not shown

HLA-DQ2.5 on Ba/F3 cells [4] = target: T8, HLA-DQ2.5 on Ba/F3 cells (human, UniProt P01909 24-216, limits assumed); experiment: FACS, Ba/F3 cells; %MFI: IC17dK 0, DQN0139bb 100
T8 construct: whole, on cells; MHC class II without fused peptide; also called Ba/F3-HLA-DQ2.5

HLA-DQ2.2 on Ba/F3 cells [5] = target: T9, HLA-DQ2.2 on Ba/F3 cells (human, UniProt P01909 24-216, limits assumed); experiment: FACS, Ba/F3 cells; %MFI: IC17dK 0, DQN0139bb 100
T9 construct: whole, on cells; also called Ba/F3-HLA-DQ2.2
T9 MHC II alpha: not shown
T9 MHC II beta: not shown

[6] = target: HLA-DQ2.5 on IHW09023 cells loaded with gamma 1 gliadin peptide (human; wheat); experiment: cell-based or functional assay
[7] = target: HLA-DQ2.5 on IHW09023 cells loaded with omega1/2 gliadin peptide (human; wheat); experiment: cell-based or functional assay
[8] = target: HLA-DQ2.5 on IHW09023 cells loaded with gamma 4a gliadin peptide (human; wheat); experiment: cell-based or functional assay
[9] = target: HLA-DQ2.5 on IHW09023 cells loaded with gamma 4d gliadin peptide (human; wheat); experiment: cell-based or functional assay
[10] = target: HLA-DQ2.5 on IHW09023 cells loaded with 33mer gliadin peptide (human; wheat); experiment: cell-based or functional assay
[11] = target: HLA-DQ2.5 on IHW09023 cells loaded with gamma 3 gliadin peptide (human; wheat); experiment: cell-based or functional assay
[12] = target: HLA-DQ2.5 on IHW09023 cells loaded with BC hordein peptide (human; barley); experiment: cell-based or functional assay
[13] = target: HLA-DQ2.5 on IHW09023 cells loaded with gamma 2 gliadin peptide (human; wheat); experiment: cell-based or functional assay
HLA-DQ8 on Ba/F3 cells [14] = target: T5, HLA-DQ8 on Ba/F3 cells; experiment: FACS, Ba/F3 cells; %MFI: IC17dK 0, DQN0139bb 100
HLA-DQ7.5 on Ba/F3 cells [15] = target: T6, HLA-DQ7.5 on Ba/F3 cells; experiment: FACS, Ba/F3 cells; %MFI: IC17dK 0, DQN0139bb 100; remark: listed apart in the source
HLA-DQ7.3 on Ba/F3 cells [16] = target: T7, HLA-DQ7.3 on Ba/F3 cells; experiment: FACS, Ba/F3 cells; %MFI: IC17dK 0, DQN0139bb 100
HLA-DQ2.5 on Ba/F3 cells [17] = target: T8, HLA-DQ2.5 on Ba/F3 cells; experiment: FACS, Ba/F3 cells; %MFI: IC17dK 0, DQN0139bb 100; remark: listed apart in the source
HLA-DQ2.2 on Ba/F3 cells [18] = target: T9, HLA-DQ2.2 on Ba/F3 cells; experiment: FACS, Ba/F3 cells; %MFI: IC17dK 0, DQN0139bb 100

T4 sequence (P20036 29-222 limits assumed, chain 1 of 4, other chains not shown): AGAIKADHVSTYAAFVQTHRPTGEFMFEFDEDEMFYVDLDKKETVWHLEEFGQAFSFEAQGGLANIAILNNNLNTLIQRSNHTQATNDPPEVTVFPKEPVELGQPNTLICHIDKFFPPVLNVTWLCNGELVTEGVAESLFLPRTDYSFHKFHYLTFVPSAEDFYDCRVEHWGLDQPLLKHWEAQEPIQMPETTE
T4 sequence (P04440 30-225 limits assumed, chain 2 of 4, other chains not shown): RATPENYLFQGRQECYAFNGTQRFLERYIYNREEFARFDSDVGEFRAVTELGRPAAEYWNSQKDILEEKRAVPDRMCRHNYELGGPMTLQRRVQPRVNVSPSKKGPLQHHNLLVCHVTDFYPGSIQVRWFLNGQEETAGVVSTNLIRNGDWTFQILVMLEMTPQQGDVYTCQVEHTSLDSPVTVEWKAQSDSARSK

Binder | binding result (HLA-DQ6.3 on Ba/F3 cells) | binding result (HLA-DQ5.1 on Ba/F3 cells) | binding result (HLA-DR on Ba/F3 cells) | binding result (HLA-DP on Ba/F3 cells) | IC50 (ng/mL), γ1 gliadin TCR, 250 nM γ1 gliadin [6] [ng/mL] | IC50 (ng/mL), ω1 gliadin TCR, 25 µM ω1/2 gliadin [7] [ng/mL] | IC50 (ng/mL), γ4a gliadin TCR, 25 µM γ4a gliadin [8] [ng/mL] | IC50 (ng/mL), γ4d gliadin TCR, 100 µM γ4d gliadin [9] [ng/mL] | IC50 (ng/mL), α1a gliadin TCR, 250 nM 33mer gliadin [10] [ng/mL] | IC50 (ng/mL), α1b gliadin TCR, 250 nM 33mer gliadin [10] [ng/mL] | IC50 (ng/mL), α2 gliadin TCR, 250 nM 33mer gliadin [10] [ng/mL] | IC50 (ng/mL), γ3 gliadin TCR, 100 µM γ3 gliadin [11] [ng/mL] | IC50 (ng/mL), BC hordein TCR, 250 nM BC hordein [12] [ng/mL] | IC50 (ng/mL), γ2 gliadin TCR, 250 nM γ2 gliadin [13] [ng/mL] | further results
B1 | no binding (tested: 0.05 micro g/mL) | no binding (tested: 0.05 micro g/mL) | no binding (tested: 0.05 micro g/mL) | no binding (tested: 0.05 micro g/mL) | 1.71 | 1.88 | 1730 | 3.15 | 0.26 | 1.13 | 0.38 | 3.15 | 11.6 | 279 | binding result (HLA-DQ8 on Ba/F3 cells [1]): no binding (tested: 0.05 micro g/mL); binding result (HLA-DQ7.5 on Ba/F3 cells [2]): no binding (tested: 0.05 micro g/mL); binding result (HLA-DQ7.3 on Ba/F3 cells [3]): no binding (tested: 0.05 micro g/mL); binding result (HLA-DQ2.5 on Ba/F3 cells [4]): no binding (tested: 0.05 micro g/mL); binding result (HLA-DQ2.2 on Ba/F3 cells [5]): no binding (tested: 0.05 micro g/mL); IC50 (ng/mL), ω2 gliadin TCR, 250 nM ω1/2 gliadin [7]: 0.27 ng/mL
B2 | no binding (tested: 0.05 micro g/mL) | no binding (tested: 0.05 micro g/mL) | no binding (tested: 0.05 micro g/mL) | no binding (tested: 0.05 micro g/mL) | 0.68 | 1.91 | 1350 | 13 | 0.28 | 1.76 | 0.33 | 1.4 | 8.98 | 853 | binding result (HLA-DQ8 on Ba/F3 cells [14]): no binding (tested: 0.05 micro g/mL); binding result (HLA-DQ7.5 on Ba/F3 cells [15]): no binding (tested: 0.05 micro g/mL); binding result (HLA-DQ7.3 on Ba/F3 cells [16]): no binding (tested: 0.05 micro g/mL); binding result (HLA-DQ2.5 on Ba/F3 cells [17]): no binding (tested: 0.05 micro g/mL); binding result (HLA-DQ2.2 on Ba/F3 cells [18]): no binding (tested: 0.05 micro g/mL)
